Reference: patent US20250002527A1, “STEROID COMPOUND AND CONJUGATE THEREOF” (DUALITY BIOLOGICS (SUZHOU) CO., LTD., priority 2021, published 2025)

How the values were obtained:
Assay type in all cases: cell-based
human PBMC cells [1] = assay: TNF-α secretion from PBMC under R848 stimulation (compounds); settings: R848 5 μM, 24 hours, mean ± standard deviation
Description: (§1) The compounds of the present application were tested for their inhibitory effect on the production of peripheral blood monocytes. The peripheral blood monocytes were treated in vitro with the ligand-drug conjugate at different concentrations, and IFNα and TNFα generated by the peripheral blood monocytes were quantitatively detected after a certain time. The compounds of the present invention were evaluated for in-vitro activity.
(§2) The cryopreserved human PBMC cells were resuspended in a complete medium and counted, and the cell suspension was adjusted to 2.5×10*6 cells/mL with the culture medium. After the suspension was centrifuged to collect the cells the next day, the cells were resuspended using fresh culture medium. Test compounds were diluted to 4-fold final concentration in cell culture medium, 50 μL of the compounds were added into a 96-well cell plate, and 100 μL of diluted cells ([…]) were added into each well of the 96-well plate containing the compounds, followed by addition of 50 μL R848 to a final concentration of 5 μM. The cell plate was incubated at 37° C. with 5% CO2 for 24 hours. The supernatant was collected, and the TNF-α and IFN-α concentration levels in the supernatant were detected using an ELISA kit.
TNF-α concentration assay was performed using Dakewe TNF-α ELISA kit (Cat #1117202), 100 μL of the serially-diluted cytokine standard was added into each well, 100 μL of the above supernatant diluted 10-fold was added into each well, and 100 μL of 1× dilution buffer R was added into each blank well. 50 μL of biotinylated antibody working solution was added into each well. After mixing well, the plate was covered with the plate-sealing membrane and incubated at room temperature for 3 hours. The plate was washed for 3 times: the liquid in each well was discarded, and 300 μL of 1× washing buffer working solution was added into each well; after 1 minute of residence, the liquid in the wells was discarded. The procedure was repeated for 3 times. 100 μL of Streptavidin-HRP working solution was added into each well. The plate was covered with the plate-sealing membrane and incubated at room temperature for 20 minutes. The plate was washed for 3 times, 100 μL of TMB liquid was added into each well, and the plate was incubated for 25 minutes at room temperature (18-25° C.) in the dark. The reaction was stopped by adding 100 μL stop solution rapidly to each well. The reading at a wavelength of 450 nm was detected by an M2e instrument within 10 minutes after termination.
(§3) The contents of TNF-α and IFN-α were calculated from the OD450 values.

human PBMC cells [2] = assay: IFN-α secretion from PBMC under R848 stimulation (compounds); settings: R848 5 μM, 24 hours, mean ± standard deviation
Description: as §1, §2
50 μL of biotinylated antibody working solution was added into each well. After mixing well, the plate was covered with the plate-sealing membrane and incubated at room temperature for 3 hours. […] The procedure was repeated for 3 times. 100 μL of Streptavidin-HRP working solution was added into each well. The plate was covered with the plate-sealing membrane and incubated at room temperature for 20 minutes. The plate was washed for 3 times, 100 μL of TMB liquid was added into each well, and the plate was incubated for 25 minutes at room temperature (18-25° C.) in the dark. The reaction was stopped by adding 100 μL stop solution rapidly to each well. The reading at a wavelength of 450 nm was detected by an M2e instrument within 10 minutes after termination.
as §3

human PBMC cells [3] = assay: R848-induced IFNα release from PBMCs (drug conjugates, FIG. 1a); settings: incubation concentration 300 nm
Description: (§4) 1a: R848-induced IFNα release from PBMCs; 1b: R848-induced TNFα release from PBMCs; 1c: R848-induced IL6 release from PBMCs, 1d: R848-induced IL8 release from PBMCs.
(§5) The inhibitory effect of the ligand-drug conjugate (ADC) of the present application on the production of IFNα by peripheral blood monocytes was examined. The peripheral blood monocytes were treated in vitro with the ligand-drug conjugate at different concentrations, and IFNα and TNFα generated by the peripheral blood monocytes were quantitatively detected after a certain time. The ligand-drug conjugates were evaluated for in-vitro activity.
(§6) The cryopreserved human PBMC cells were resuspended in a complete medium and counted, and the cell suspension was adjusted to 2.5×10*6 cells/mL with the culture medium. After the suspension was centrifuged to collect the cells the next day, the cells were resuspended using fresh culture medium, and 100 μL of diluted cells ([…]) were added into a 96-well plate. The test samples were diluted to 3-fold final stimulation concentration using fresh culture medium, 50 μL of the diluted test samples were added into the 96-well cell plate, and the cell plate was incubated at 37° C. with 5% CO2 for 12 hours, followed by addition of 50 μL 20 μM R848 each well. The cell plate was incubated at 37° C. with 5% CO2 for 20 hours. The supernatant was collected, and the cytokine concentration in the supernatant was detected using a kit.
(§7) IFN-α concentration assay was performed using Dakewe […] ELISA kit (Cat #1110012), 100 μL of the serially-diluted cytokine standard was added into each well, 100 μL of the above supernatant diluted 2-fold was added into each well, and 100 μL of 1× dilution buffer R was added into each blank well. 50 μL of biotinylated antibody working solution was added into each well. After mixing well, the plate was covered with the plate-sealing membrane and incubated at room temperature for 3 hours. […] The reading at a wavelength of 450 nm was detected by an M2e instrument within 10 minutes after termination.

human PBMC cells [4] = assay: R848-induced TNFα release from PBMCs (drug conjugates, FIG. 1b); settings: incubation concentration 300 nm
Description: as §4, §5, §6
as §7, with “TNF-α” for “IFN-α”, “#1117202),” for “#1110012),”, “10-fold” for “2-fold”

human PBMC cells [5] = assay: R848-induced IL6 release from PBMCs (drug conjugates, FIG. 1c); settings: incubation concentration 300 nm
Description: as §4, §5, §6
IL-6 concentration assay was performed using Dakewe IL-6 ELISA kit (Cat #DKW12-1060-096), 100 μL of serially-diluted cytokine standard was added into each well, 100 μL of the above supernatant diluted 2-fold was added into each well, and 100 μL of 1× dilution buffer R was added into each blank well. 50 μL of biotinylated antibody working solution was added into each well. After mixing well, the plate was covered with the plate-sealing membrane and incubated at room temperature for 3 hours. […] The reading at a wavelength of 450 nm was detected by an M2e instrument within 10 minutes after termination.

human PBMC cells [6] = assay: R848-induced IL8 release from PBMCs (drug conjugates, FIG. 1d); settings: incubation concentration 300 nm
Description: as §4, §5, §6
IL-8 concentration assay was performed using Dakewe IL-8 ELISA kit (Cat #1110802), 100 μL of the serially-diluted cytokine standard was added into each well, 100 μL of the above supernatant diluted 2-fold was added into each well, and 100 μL of 1× dilution buffer R was added into each blank well. 50 μL of biotinylated antibody working solution was added into each well. After mixing well, the plate was covered with the plate-sealing membrane and incubated at room temperature for 3 hours. […] The reading at a wavelength of 450 nm was detected by an M2e instrument within 10 minutes after termination.

Molecule	TNF-α secretion (pg/mL) from PBMC under R848 stimulation (human PBMC cells [1]; compound 4 nM) [pg/mL]	TNF-α secretion (pg/mL) from PBMC under R848 stimulation (human PBMC cells [1]; compound 20 nM) [pg/mL]	TNF-α secretion (pg/mL) from PBMC under R848 stimulation (human PBMC cells [1]; compound 100 nM) [pg/mL]	IFN-α secretion (pg/mL) from PBMC under R848 stimulation (human PBMC cells [2]; compound 20 nM) [pg/mL]	IFN-α secretion (pg/mL) from PBMC under R848 stimulation (human PBMC cells [2]; compound 100 nM) [pg/mL]	IFN-α secretion (pg/mL) from PBMC under R848 stimulation (human PBMC cells [2]; compound 4 nM) [pg/mL]	IFN-α contents in the detection system (human PBMC cells [3]) [pg/mL]	TNF-α contents in the detection system (human PBMC cells [4]) [pg/mL]	IL-6 contents in the detection system (human PBMC cells [5]) [pg/mL]	IL-8 contents in the detection system (human PBMC cells [6]) [pg/mL]
C[C@]12C=CC(=O)C=C1CC[C@@H]1[C@@H]2[C@@H](O)C[C@@]2(C)[C@H]1C[C@H]1O[C@@H](c3ccc(Cc4cccc(N)c4)cc3)O[C@]12C(=O)CO [Compound 14]	868	465.6	471.9	10.2 ± 10.2	13 ± 13					
C[C@@H]1C[C@H]2[C@@H]3CCC4=CC(=O)C=C[C@]4(C)[C@@]3(F)[C@@H](O)C[C@]2(C)[C@@]1(O)C(=O)CO [Dexamethasone, dexamethasone, reference compound]	1446.5	761.9	396.4	169.6 ± 94.4	0 ± 0	620.7 ± 70.4				
Conjugate 19: antibody BIIB059 reacted with Compound 9 "to give Conjugate 19"; 4.75 by LC-MS (conjugate, chains of the INN, looked up, Compound 9 conjugate, antibody BIIB059 reacted with Compound 9 "to give Conjugate 19"; 4.75 by LC-MS) VH: DVQLVESGGGLVKPGGSLRLSCAASGFTFSTYTMSWVRQAPGKGLEWVATISPGDSFGYYYPDSVQGRFTISRDNAKNSLYLQMNSLRAEDTAVYYCTRDIYYNYGAWFAYWGQGTLVTVSS VL: DIQLTQSPSSLSASVGDRVTITCKASQSVDYDGDSYMNWYQQKPGKAPKLLIYAASTLESGVPSRFSGSGSGTDFTLTISSLQPEDFATYYCQQANEDPRTFGQGTKVEIK							113.2	761.8	8861.7	26565.5
Conjugate 21: antibody BIIB059 reacted with Compound 15 "to give Conjugate 21"; 4.30 by LC-MS (conjugate, chains of the INN, looked up, Compound 15 conjugate, antibody BIIB059 reacted with Compound 15 "to give Conjugate 21"; 4.30 by LC-MS) VH: DVQLVESGGGLVKPGGSLRLSCAASGFTFSTYTMSWVRQAPGKGLEWVATISPGDSFGYYYPDSVQGRFTISRDNAKNSLYLQMNSLRAEDTAVYYCTRDIYYNYGAWFAYWGQGTLVTVSS VL: DIQLTQSPSSLSASVGDRVTITCKASQSVDYDGDSYMNWYQQKPGKAPKLLIYAASTLESGVPSRFSGSGSGTDFTLTISSLQPEDFATYYCQQANEDPRTFGQGTKVEIK							911.9	2644.1	29867.1	43544.9
Conjugate 20: antibody BIIB059 reacted with Compound 16 "to give Conjugate 20"; 4.27 by LC-MS (conjugate, chains of the INN, looked up, conjugated to Compound 16, antibody BIIB059 reacted with Compound 16 "to give Conjugate 20"; 4.27 by LC-MS) VH: DVQLVESGGGLVKPGGSLRLSCAASGFTFSTYTMSWVRQAPGKGLEWVATISPGDSFGYYYPDSVQGRFTISRDNAKNSLYLQMNSLRAEDTAVYYCTRDIYYNYGAWFAYWGQGTLVTVSS VL: DIQLTQSPSSLSASVGDRVTITCKASQSVDYDGDSYMNWYQQKPGKAPKLLIYAASTLESGVPSRFSGSGSGTDFTLTISSLQPEDFATYYCQQANEDPRTFGQGTKVEIK							1422.5	3280.0	34744.1	56315.8
